Results on four substances are retold here after US20040018561.

Series [1] has as its system N-2-[(7-methoxy-2-oxo-2H-chromen-4-yl)acetyl]-L-arginyl-L-prolyl-L-leucylglycyl-L-leucyl-3-[(2,4-dinitrophenyl)amino]-L-alanyl-L-alanyl-D-arginyl-D-alpha-glutamyl-D-argininamide.
For series [2], the system named is N-2-[(7-methoxy-2-oxo-2H-chromen-4-yl)acetyl]-L-arginyl-L-prolyl-L-leucylglycyl-6-(benzyloxy)-L-norleucyl-3-[(2,4-dinitrophenyl)amino]-L-alanyl-L-alanyl-L-arginyl-L-alpha-glutamyl-L-argininamide.
Series [3] has as its system N-2-[(7-methoxy-2-oxo-2H-chromen-4-yl)acetyl]-D-arginyl-L-prolyl-L-leucylglycyl-6-phenoxy-L-norleucyl-3-[(2,4-dinitrophenyl)amino]-L-alanyl-L-alanyl-D-arginyl-D-alpha-glutamyl-D-argininamide.
The subject of series [4] is N-2-[(7-methoxy-2-oxo-2H-chromen-4-yl)acetyl]-D-arginyl-L-prolyl-L-leucylglycyl-6-(benzyloxy)-L-norleucyl-3-[(2,4-dinitrophenyl)amino]-L-alanyl-L-alanyl-D-arginyl-D-alpha-glutamyl-D-argininamide.
Series [5] concerns N-2-[(7-methoxy-2-oxo-2H-chromen-4-yl)acetyl]-D-arginyl-L-prolyl-L-leucylglycyl-L-leucyl-3-[(2,4-dinitrophenyl)amino]-L-alanyl-L-alanyl-D-arginyl-D-alpha-glutamyl-D-argininamide.
Series [6] relates to N-2-[(7-methoxy-2-oxo-2H-chromen-4-yl)acetyl]-L-arginyl-L-prolyl-L-leucylglycyl-L-leucyl-3-[(2,4-dinitrophenyl)amino]-L-alanyl-L-alanyl-L-arginyl-L-alpha-glutamyl-L-argininamide.

Sequence of MMP-8 (chain, as listed by the source): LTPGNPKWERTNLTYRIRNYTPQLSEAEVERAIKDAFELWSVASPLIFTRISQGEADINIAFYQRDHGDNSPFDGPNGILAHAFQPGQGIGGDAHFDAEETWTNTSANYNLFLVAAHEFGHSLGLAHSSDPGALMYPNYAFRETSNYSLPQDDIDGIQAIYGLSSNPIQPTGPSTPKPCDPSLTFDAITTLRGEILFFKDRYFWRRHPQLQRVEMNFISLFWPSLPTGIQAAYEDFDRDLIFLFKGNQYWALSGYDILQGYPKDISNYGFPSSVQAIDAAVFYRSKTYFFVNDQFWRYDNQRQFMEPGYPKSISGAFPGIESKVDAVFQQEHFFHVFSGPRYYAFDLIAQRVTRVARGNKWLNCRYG
Sequence of MMP-3 (chain, as listed by the source): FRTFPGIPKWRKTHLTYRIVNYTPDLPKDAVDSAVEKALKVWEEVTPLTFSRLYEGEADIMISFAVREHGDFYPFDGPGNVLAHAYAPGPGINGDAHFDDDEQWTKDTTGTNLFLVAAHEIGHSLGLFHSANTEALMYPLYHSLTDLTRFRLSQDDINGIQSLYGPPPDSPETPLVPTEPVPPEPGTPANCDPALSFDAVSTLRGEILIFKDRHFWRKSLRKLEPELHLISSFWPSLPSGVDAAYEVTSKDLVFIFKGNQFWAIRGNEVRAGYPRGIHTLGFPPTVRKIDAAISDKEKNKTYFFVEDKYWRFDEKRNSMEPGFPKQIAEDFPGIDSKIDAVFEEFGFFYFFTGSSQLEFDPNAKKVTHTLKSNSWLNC
Sequence of MMP-9 (chain, as listed by the source): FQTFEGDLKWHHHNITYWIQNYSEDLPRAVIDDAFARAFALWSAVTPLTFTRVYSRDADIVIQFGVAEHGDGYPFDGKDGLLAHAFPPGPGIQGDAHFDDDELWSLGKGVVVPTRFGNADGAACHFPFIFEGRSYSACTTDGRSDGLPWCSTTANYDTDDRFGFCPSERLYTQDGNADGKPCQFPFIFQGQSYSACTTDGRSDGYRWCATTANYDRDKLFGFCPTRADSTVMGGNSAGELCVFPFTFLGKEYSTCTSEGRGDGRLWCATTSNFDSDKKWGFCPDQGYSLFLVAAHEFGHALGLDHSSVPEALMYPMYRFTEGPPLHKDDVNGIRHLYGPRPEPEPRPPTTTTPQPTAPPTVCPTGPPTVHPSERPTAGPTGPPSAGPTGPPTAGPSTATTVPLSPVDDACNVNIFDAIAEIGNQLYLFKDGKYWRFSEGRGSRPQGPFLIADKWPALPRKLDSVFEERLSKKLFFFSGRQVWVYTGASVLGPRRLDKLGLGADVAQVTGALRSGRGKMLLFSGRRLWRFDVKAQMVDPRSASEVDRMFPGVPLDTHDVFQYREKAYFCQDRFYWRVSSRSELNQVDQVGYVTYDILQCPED

The term Km denotes the substrate concentration at which the rate is half of its maximum. What is called kcat/Km is the second-order rate constant that governs catalysis at low substrate concentration. Turning to MMP-9, the Km in series [1] amounted to 8.2 µM; in series [2] it was 2.3 µM; in series [3], 1.4 µM; in series [4], 3.3 µM; in series [5] it was 6.4 µM; in series [6], 6.2 µM. In addition, the kcat/Km in series [1] turned out to be 1.33e+06 M⁻¹ s⁻¹; in series [2], 1.47e+06 M⁻¹ s⁻¹; in series [3] it was 1.91e+06 M⁻¹ s⁻¹; in series [4], 319000 M⁻¹ s⁻¹; in series [5] it was 418000 M⁻¹ s⁻¹; in series [6] it was 1.29e+06 M⁻¹ s⁻¹.
MMP-3: the Km in series [1] stood at 59.5 µM; in series [2], 85.9 µM; in series [4] it was 28.9 µM; in series [5], 14 µM; in series [6] it was 38.7 µM. The kcat/Km in series [1] amounted to 800 M⁻¹ s⁻¹; in series [2], 4800 M⁻¹ s⁻¹; in series [3] it was 0 M⁻¹ s⁻¹; in series [4], 1600 M⁻¹ s⁻¹; in series [5], 6300 M⁻¹ s⁻¹; in series [6], 9800 M⁻¹ s⁻¹.
As to MMP-8, the Km in series [1] turned out to be 13.3 µM; in series [2], 9.1 µM; in series [3], 4.4 µM; in series [4], 3.3 µM; in series [5], 16.7 µM; in series [6], 20.1 µM. Further, the kcat/Km came to 456000 M⁻¹ s⁻¹ in series [1]; 179000 M⁻¹ s⁻¹ in series [2]; 522000 M⁻¹ s⁻¹ in series [3]; 146000 M⁻¹ s⁻¹ in series [4]; 139000 M⁻¹ s⁻¹ in series [5]; 381000 M⁻¹ s⁻¹ in series [6].
As to MMP-13, the Km was 4.7 µM in series [1]; 0.9 µM in series [2]; 1.2 µM in series [3]; 1.5 µM in series [4]; 9 µM in series [5]; 3.9 µM in series [6]. Also, the kcat/Km was found to be 4.08e+06 M⁻¹ s⁻¹ in series [1]; 4.24e+06 M⁻¹ s⁻¹ in series [2]; 2.93e+06 M⁻¹ s⁻¹ in series [3]; 1.58e+06 M⁻¹ s⁻¹ in series [4]; 296000 M⁻¹ s⁻¹ in series [5]; 3.92e+06 M⁻¹ s⁻¹ in series [6].
